Test results reported in patent publication US20230105714A1.
Each block holds one molecule with its values, some of them ahead of it.

Experiments:
[1] = target: cynomolgus TIM-3 ECD Fc fusion (made in-house) (cynomolgus monkey (Macaca fascicularis); human); test: SPR (IBIS MX96), TIM-3 ECD-Fc captured, Fab injected 1-100 nM, 1:1 fit
[2] = target: cynomolgus TIM-3 Fc fusion antigen (Sino Biologicals) (cynomolgus monkey); test: ELISA, EC50 on cynomolgus TIM-3 against EC50 on human TIM-3
[3] = target: cynomolgus TIM-3 Fc fusion antigen (Sino Biologicals) (cynomolgus monkey); test: ELISA, TIM-3 Fc fusion coated at 1 ug/ml, antibody titrated from 1000 nM

Sequence of cynomolgus TIM-3 Fc fusion antigen (Sino Biologicals) (cynomolgus monkey) (chain, as listed by the source limits assumed): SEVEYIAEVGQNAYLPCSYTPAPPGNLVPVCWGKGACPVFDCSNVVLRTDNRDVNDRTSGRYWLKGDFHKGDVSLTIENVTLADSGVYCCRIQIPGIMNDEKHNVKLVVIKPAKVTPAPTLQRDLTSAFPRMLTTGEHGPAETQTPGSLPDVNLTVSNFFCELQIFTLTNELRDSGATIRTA
Sequence of cynomolgus TIM-3 ECD Fc fusion (made in-house) (cynomolgus monkey (Macaca fascicularis); human) (chain, as listed by the source limits assumed): as above

Kd [1]: 25 nM
Molecule: Fab fragment of 18564 ABTIM3 (reference analogue)

Ratio Cynomolgus/Human EC50 [2]: 47 | EC50 [3]: 9.42 nM
B1: antibody 19416 (antibody, V domains shown)
VH: QVQLVESGPGLVKPSQTLSLTCTVSGGSINSGGYYWSWIRQHPGKGLEWIGYIYYSGSIYYNPSLRSRLTISVDTSKNQFSLKLSSVTAADTAVYYCATPYYYGSGSYGDYWGQGTLVTVSS
VL: DIQMTQSPATLSLSPGERATLSCRASQSVNNYLAWYQQKPGQAPRLLIYDASNRATGIPARFSGSGSGTDFTLTISSLEPEDFAVYYCQQRSNWPITFGQGTRLEIK
